From publication PMC11133340

Target: PSII-ACPII monomer (one PSII core monomer with six ACPII subunits and CCPII-S) (Chroomonas placoidea (endogenous in C. placoidea T11))
Assay: cryo-EM structure; single-particle cryo-EM of the native PSII-ACPII supercomplex co-purified from C. placoidea thylakoids; 25 mM Hepes-KOH pH 7.5, 1 mM CaCl2, 0.012% α-DDM; C2 symmetry, 2.47 Å overall; local refinement of the peripheral ACPIIs to 2.84 Å

stoichiometry N: 2
Substance: PSII-ACPII monomer (one PSII core monomer with six ACPII subunits and CCPII-S) (from UniProt A0A222AI37 1-351; A0A222AIE3 1-509; A0A222AI36 1-461; A0A222AI74 1-84; A0A222AI51 1-42; A0A222AIE4 1-67; A0A222AI80 1-38; A0A222AI54 1-39; A0A222AIA0 1-45; A0A222AI58 1-38; A0A222AID2 1-32; A0A222AI61 1-39; A0A222AI96 1-62; A0A222AI35 1-163) (complex)
